In patent US20100021987:

GST fusion of the catalytic domain of the Xanthomonas campestris pathovar vesicatoria protease XopD (GST-XopD)
activity level (grade) (6xHis-T-SUMO-eGFP): +/- | activity level (grade) (6xHis-ySmt3-eGFP): +/- | activity level (grade) (6xHis-AtSUMO1-eGFP): - | activity level (grade) (6xHis-AtSUMO2-eGFP): +/- | activity level (grade) (6xHis-hSUMO-1-eGFP): - | activity level (grade) (6xHis-hSUMO-3-eGFP): -
